Data as given in publication PMC4775402 (Pharmacological research, 2016).
One block for each molecule: values may come before it.

Key:
WT P2RY12 = WT P2RY12 (Homo sapiens, UniProt Q9H244); test: Label-free DMR agonist response, HEK293T expressing WT P2RY12; type: cell-based
WT P2RY1 = WT P2RY1 (Homo sapiens, UniProt P47900); test: Label-free DMR agonist response, HEK293T expressing WT P2RY1; type: cell-based
ΔPDZ P2RY12 = ΔPDZ P2RY12 (Homo sapiens, UniProt Q9H244); test: Label-free DMR agonist response, HEK293T expressing ΔPDZ P2RY12; type: cell-based
ΔPDZ P2RY12, sequence (Q9H244 1-338 limits assumed, stated change not applied, one chain of several): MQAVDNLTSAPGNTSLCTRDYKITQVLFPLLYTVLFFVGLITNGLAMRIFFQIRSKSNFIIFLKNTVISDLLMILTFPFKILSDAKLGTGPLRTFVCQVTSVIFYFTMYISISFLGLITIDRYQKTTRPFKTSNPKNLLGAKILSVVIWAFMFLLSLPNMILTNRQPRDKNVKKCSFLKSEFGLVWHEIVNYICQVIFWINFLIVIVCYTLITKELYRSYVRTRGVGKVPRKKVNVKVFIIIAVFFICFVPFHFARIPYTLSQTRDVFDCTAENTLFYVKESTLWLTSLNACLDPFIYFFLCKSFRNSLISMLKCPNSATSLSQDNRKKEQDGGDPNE

ΔPDZ P2RY1 = ΔPDZ P2RY1 (Homo sapiens, UniProt P47900); test: Label-free DMR agonist response, HEK293T expressing ΔPDZ P2RY1; type: cell-based
ΔPDZ P2RY1, sequence (P47900 1-369 limits assumed, stated change not applied): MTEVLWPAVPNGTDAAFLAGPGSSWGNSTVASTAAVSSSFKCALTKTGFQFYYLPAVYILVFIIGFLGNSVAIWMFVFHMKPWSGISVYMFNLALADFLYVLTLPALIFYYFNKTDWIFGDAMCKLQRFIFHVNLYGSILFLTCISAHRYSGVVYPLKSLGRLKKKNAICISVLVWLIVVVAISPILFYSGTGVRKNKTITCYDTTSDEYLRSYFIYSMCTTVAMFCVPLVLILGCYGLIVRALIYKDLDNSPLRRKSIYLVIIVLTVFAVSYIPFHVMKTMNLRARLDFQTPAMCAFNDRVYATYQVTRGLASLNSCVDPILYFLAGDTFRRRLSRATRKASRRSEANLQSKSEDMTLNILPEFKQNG

WT ADRA1D = details: cited from earlier work
ΔPDZ ADRA1D = details: cited from earlier work
WT CXCR5 = molecular target: T1, WT CXCR5 (Homo sapiens, UniProt P32302); test: Label-free DMR agonist response, HEK293T expressing WT CXCR5; type: cell-based
T1 sequence (P32302 1-372): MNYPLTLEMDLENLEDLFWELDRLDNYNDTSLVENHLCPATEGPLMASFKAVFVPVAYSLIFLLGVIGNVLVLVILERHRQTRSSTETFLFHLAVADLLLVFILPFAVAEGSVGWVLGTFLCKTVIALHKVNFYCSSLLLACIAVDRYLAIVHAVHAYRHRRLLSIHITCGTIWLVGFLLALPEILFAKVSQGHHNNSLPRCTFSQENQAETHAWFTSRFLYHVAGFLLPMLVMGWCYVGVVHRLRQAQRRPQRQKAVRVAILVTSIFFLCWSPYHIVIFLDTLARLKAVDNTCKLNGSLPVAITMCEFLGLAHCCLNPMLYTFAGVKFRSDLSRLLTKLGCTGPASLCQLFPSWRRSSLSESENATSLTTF

ΔPDZ CXCR5 = molecular target: T2, ΔPDZ CXCR5 (Homo sapiens, UniProt P32302); test: Label-free DMR agonist response, HEK293T expressing ΔPDZ CXCR5; type: cell-based
T2 sequence (P32302 1-368 limits assumed): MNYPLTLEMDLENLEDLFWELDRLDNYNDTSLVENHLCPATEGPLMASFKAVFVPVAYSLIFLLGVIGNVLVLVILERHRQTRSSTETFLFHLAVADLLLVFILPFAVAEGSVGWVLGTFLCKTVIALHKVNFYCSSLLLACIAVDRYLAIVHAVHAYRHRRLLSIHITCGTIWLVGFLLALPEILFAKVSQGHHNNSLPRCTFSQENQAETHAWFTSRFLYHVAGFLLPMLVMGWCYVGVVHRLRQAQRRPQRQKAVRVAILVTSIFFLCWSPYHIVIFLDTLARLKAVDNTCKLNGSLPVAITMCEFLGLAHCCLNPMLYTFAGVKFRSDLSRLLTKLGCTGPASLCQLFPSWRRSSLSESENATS

ΔPDZ CXCR3 = molecular target: T3, ΔPDZ CXCR3 (Homo sapiens, UniProt P49682); test: Label-free DMR agonist response, HEK293T expressing ΔPDZ CXCR3; type: cell-based
T3 sequence (P49682 1-364 limits assumed): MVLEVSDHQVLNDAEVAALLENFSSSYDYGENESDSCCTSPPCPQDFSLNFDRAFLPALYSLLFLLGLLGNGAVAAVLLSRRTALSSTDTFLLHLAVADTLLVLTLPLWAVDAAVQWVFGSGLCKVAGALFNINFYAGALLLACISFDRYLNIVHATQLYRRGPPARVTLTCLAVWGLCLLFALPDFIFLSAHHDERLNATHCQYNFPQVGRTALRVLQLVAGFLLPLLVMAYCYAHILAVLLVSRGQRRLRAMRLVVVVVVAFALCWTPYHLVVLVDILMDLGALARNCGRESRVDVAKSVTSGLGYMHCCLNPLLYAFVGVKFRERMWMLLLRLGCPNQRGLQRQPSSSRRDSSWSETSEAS

WT CXCR2 = molecular target: T4, WT CXCR2 (Homo sapiens, UniProt P25025); test: Label-free DMR agonist response, HEK293T expressing WT CXCR2; type: cell-based
T4 sequence (P25025 1-360): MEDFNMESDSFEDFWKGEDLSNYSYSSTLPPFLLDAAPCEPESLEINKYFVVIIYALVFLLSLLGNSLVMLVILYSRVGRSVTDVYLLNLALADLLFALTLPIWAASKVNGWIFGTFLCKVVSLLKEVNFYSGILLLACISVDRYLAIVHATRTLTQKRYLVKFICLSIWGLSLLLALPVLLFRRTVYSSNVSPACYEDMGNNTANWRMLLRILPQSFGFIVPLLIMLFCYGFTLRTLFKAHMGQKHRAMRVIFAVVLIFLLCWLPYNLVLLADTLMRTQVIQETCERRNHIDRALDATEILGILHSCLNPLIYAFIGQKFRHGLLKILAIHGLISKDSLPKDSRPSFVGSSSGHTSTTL

WT CXCR1 = molecular target: T5, WT CXCR1 (Homo sapiens, UniProt P25024); test: Label-free DMR agonist response, HEK293T expressing WT CXCR1; type: cell-based
T5 sequence (P25024 1-350): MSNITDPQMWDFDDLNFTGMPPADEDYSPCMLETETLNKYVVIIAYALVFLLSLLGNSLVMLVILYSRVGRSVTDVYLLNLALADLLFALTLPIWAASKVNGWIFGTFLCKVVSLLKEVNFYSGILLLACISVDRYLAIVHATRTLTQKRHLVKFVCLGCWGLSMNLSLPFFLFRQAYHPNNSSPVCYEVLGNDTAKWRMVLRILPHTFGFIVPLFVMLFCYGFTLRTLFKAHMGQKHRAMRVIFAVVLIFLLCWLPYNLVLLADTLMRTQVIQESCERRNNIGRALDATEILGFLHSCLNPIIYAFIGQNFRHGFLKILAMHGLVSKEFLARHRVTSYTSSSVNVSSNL

WT CXCR3 = molecular target: T6, WT CXCR3 (Homo sapiens, UniProt P49682); test: Label-free DMR agonist response, HEK293T expressing WT CXCR3; type: cell-based
T6 sequence (P49682 1-368): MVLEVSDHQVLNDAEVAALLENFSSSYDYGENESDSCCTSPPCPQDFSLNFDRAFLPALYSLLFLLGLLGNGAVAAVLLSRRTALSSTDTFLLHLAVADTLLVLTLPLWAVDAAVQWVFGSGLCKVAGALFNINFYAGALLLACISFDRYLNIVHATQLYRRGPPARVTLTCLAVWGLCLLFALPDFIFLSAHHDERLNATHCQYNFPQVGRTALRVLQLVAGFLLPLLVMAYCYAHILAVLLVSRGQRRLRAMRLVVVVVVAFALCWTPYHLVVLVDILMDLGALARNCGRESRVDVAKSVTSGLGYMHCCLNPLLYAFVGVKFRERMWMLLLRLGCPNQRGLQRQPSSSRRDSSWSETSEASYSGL

ΔPDZ CXCR2 = molecular target: T7, ΔPDZ CXCR2 (Homo sapiens, UniProt P25025); test: Label-free DMR agonist response, HEK293T expressing ΔPDZ CXCR2; type: cell-based
T7 sequence (P25025 1-356 limits assumed): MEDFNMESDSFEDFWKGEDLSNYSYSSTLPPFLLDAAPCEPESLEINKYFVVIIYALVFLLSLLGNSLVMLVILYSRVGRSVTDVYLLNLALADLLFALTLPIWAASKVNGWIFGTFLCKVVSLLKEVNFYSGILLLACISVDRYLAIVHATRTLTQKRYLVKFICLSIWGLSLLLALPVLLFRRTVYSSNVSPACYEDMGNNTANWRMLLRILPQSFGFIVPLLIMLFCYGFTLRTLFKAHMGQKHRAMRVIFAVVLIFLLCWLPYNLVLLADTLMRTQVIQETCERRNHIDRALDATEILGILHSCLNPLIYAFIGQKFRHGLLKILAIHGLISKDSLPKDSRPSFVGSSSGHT

ΔPDZ CXCR1 = molecular target: T8, ΔPDZ CXCR1 (Homo sapiens, UniProt P25024); test: Label-free DMR agonist response, HEK293T expressing ΔPDZ CXCR1; type: cell-based
T8 sequence (P25024 1-346 limits assumed): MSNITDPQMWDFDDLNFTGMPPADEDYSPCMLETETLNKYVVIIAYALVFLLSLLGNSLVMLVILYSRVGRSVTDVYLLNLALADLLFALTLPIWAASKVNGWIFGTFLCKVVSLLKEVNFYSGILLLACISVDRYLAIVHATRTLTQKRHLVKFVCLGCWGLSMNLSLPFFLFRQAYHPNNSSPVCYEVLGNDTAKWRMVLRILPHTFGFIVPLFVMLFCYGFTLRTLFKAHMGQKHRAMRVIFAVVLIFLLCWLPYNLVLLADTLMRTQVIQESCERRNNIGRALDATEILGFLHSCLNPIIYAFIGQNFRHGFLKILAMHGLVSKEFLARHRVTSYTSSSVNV

WT P2RY1, sequence (P47900 whole entry): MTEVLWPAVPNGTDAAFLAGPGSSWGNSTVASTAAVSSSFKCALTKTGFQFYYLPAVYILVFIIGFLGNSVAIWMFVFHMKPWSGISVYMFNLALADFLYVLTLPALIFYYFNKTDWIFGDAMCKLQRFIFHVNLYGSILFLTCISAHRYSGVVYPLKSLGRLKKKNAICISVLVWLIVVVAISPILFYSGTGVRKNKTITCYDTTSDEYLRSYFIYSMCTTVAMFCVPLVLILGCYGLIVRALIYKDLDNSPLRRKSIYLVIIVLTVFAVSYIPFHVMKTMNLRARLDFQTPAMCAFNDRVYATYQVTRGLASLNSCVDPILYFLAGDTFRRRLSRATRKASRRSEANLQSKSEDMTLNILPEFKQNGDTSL
WT P2RY12, sequence (Q9H244 whole entry, one chain of several): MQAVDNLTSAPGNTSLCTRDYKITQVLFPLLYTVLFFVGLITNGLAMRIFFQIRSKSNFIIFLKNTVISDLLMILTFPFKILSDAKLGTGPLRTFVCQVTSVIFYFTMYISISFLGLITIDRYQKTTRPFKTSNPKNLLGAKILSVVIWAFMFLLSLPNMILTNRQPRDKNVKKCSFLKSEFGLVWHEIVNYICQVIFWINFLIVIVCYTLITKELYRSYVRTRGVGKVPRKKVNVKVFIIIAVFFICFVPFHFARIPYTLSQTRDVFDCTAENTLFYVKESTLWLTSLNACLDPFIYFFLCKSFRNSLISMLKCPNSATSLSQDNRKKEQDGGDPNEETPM

Molecule: O=c1ccn([C@@H]2O[C@H](COP(=O)(O)OP(=O)(O)OP(=O)(O)O)[C@@H](O)[C@H]2O)c(=O)[nH]1 [UTP]
- WT pEC50 (WT P2RY12; HEK293T, WT P2RY12, DMR CRC): −5.47 ± 0.07
- WT Max (DMR) (WT P2RY12; HEK293T, WT P2RY12, maximal agonist DMR response): 170.04 ± 2.93
- WT TTP (WT P2RY12; HEK293T, WT P2RY12, time to peak DMR): 5.40 s
- Agonist potency (in words) (WT P2RY12; P2Y receptors (P2RY12), DMR): micromolar
- WT pEC50 (WT P2RY1; HEK293T, WT P2RY1, DMR CRC): −5.39 ± 0.15
- WT Max (DMR) (WT P2RY1; HEK293T, WT P2RY1, maximal agonist DMR response): 116.19 ± 2.22
- WT TTP (WT P2RY1; HEK293T, WT P2RY1, time to peak DMR): 4.87 s
- Agonist potency (in words) (WT P2RY1; P2Y receptors (P2RY1), DMR): micromolar
- ΔPDZ pEC50 (ΔPDZ P2RY12; ΔPDZ P2RY12, DMR CRC): −5.70 ± 0.08
- ΔPDZ Max (DMR) (ΔPDZ P2RY12; ΔPDZ P2RY12, maximal agonist DMR response): 192.60 ± 6.35
- ΔPDZ TTP (ΔPDZ P2RY12; ΔPDZ P2RY12, time to peak DMR): 5.20 s
- ΔPDZ pEC50 (ΔPDZ P2RY1; ΔPDZ P2RY1, DMR CRC): −5.69 ± 0.19
- ΔPDZ Max (DMR) (ΔPDZ P2RY1; ΔPDZ P2RY1, maximal agonist DMR response): 118.68 ± 10.27
- ΔPDZ TTP (ΔPDZ P2RY1; ΔPDZ P2RY1, time to peak DMR): 5.27 s

Molecule: CNC[C@H](O)c1cccc(O)c1 [phenylephrine]
- enhancement of the DMR response (WT ADRA1D; ADRA1D with overexpression of SCRIB alone): ~5 fold
- activation, DMR (in words) (WT ADRA1D; WT ADRA1D): weak activation
- activation, DMR (in words) (ΔPDZ ADRA1D): weak activation

- WT pEC50 (WT CXCR5; WT CXCR5, DMR CRC): −10.34 ± 0.16
- WT Max (DMR) (WT CXCR5; WT CXCR5, maximal agonist DMR response): 23.22 ± 1.80
- WT TTP (WT CXCR5; WT CXCR5, time to peak DMR): 2.50 s
- ΔPDZ pEC50 (ΔPDZ CXCR5; ΔPDZ CXCR5, DMR CRC): −9.97 ± 0.12
- ΔPDZ Max (DMR) (ΔPDZ CXCR5; ΔPDZ CXCR5, maximal agonist DMR response): 40.70 ± 2.54
- ΔPDZ TTP (ΔPDZ CXCR5; ΔPDZ CXCR5, time to peak DMR): 2.30 s
- ΔPDZ Max (DMR) (ΔPDZ CXCR3; ΔPDZ CXCR3, maximal agonist DMR response): 18.3 ± 3.16
- ΔPDZ TTP (ΔPDZ CXCR3; ΔPDZ CXCR3, time to peak DMR): 15.60 s
- WT pEC50 (WT CXCR2; WT CXCR2, DMR CRC): −8.53 ± 0.11
- WT Max (DMR) (WT CXCR2; WT CXCR2, maximal agonist DMR response): 34.89 ± 2.08
- WT TTP (WT CXCR2; WT CXCR2, time to peak DMR): 3.20 s
- WT pEC50 (WT CXCR1; WT CXCR1, DMR CRC): −8.29 ± 0.07
- WT Max (DMR) (WT CXCR1; WT CXCR1, maximal agonist DMR response): 69.69 ± 1.88
- WT TTP (WT CXCR1; WT CXCR1, time to peak DMR): 3.60 s
- WT Max (DMR) (WT CXCR3; WT CXCR3, maximal agonist DMR response): 10.17 ± 2.00
- WT TTP (WT CXCR3; WT CXCR3, time to peak DMR): 11.70 s
- ΔPDZ pEC50 (ΔPDZ CXCR2; ΔPDZ CXCR2, DMR CRC): −8.45 ± 0.13
- ΔPDZ Max (DMR) (ΔPDZ CXCR2; ΔPDZ CXCR2, maximal agonist DMR response): 37.50 ± 2.20
- ΔPDZ TTP (ΔPDZ CXCR2; ΔPDZ CXCR2, time to peak DMR): 3.50 s
- ΔPDZ pEC50 (ΔPDZ CXCR1; ΔPDZ CXCR1, DMR CRC): −7.08 ± 0.45
- ΔPDZ Max (DMR) (ΔPDZ CXCR1; ΔPDZ CXCR1, maximal agonist DMR response): 9.48 ± 1.53
- ΔPDZ TTP (ΔPDZ CXCR1; ΔPDZ CXCR1, time to peak DMR): 3.80 s
Molecule: interleukin-8
